Results published in patent publication US10047131B2, “Peptides and combination of peptides for use in immunotherapy against ovarian cancer and other cancers” (immatics biotechnologies GmbH, priority 2015, dated 2018).

biological target: HLA-A*02:01 (Homo sapiens, UniProt P04439, D140Y/D185E/D98H/E176V/E277Q/G131W/G231S/I119V/I121R/I166T/I218V/L300P/L318F/N151K/N90K/P208A/P217A/Q86G/Q94H/R138H/R169H/T345S); assay: MHC binding assay (UV-ligand exchange, ELISA of exchange yield); conditions: binding to HLA-A*02:01, UV-ligand exchange
Description: Candidate peptides for T cell based therapies according to the present invention were further tested for their MHC binding capacity (affinity). The individual peptide-MHC complexes were produced by UV-ligand exchange, where a UV-sensitive peptide is cleaved upon UV-irradiation, and exchanged with the peptide of interest as analyzed. Only peptide candidates that can effectively bind and stabilize the peptide-receptive MHC molecules prevent dissociation of the MHC complexes. To determine the yield of the exchange reaction, an ELISA was performed based on the detection of the light chain (p2m) of stabilized MHC complexes. The assay was performed as generally described in Rodenko et al. (Rodenko et al., 2006).
96 well MAXISorp plates (NUNC) were coated over night with 2 μg/ml streptavidin in PBS at room temperature, washed 4× and blocked for 1 h at 37° C. in 2% BSA containing blocking buffer. […] Peptide-MHC monomers of the UV-exchange reaction were diluted 100 fold in blocking buffer. Samples were incubated for 1h at 37° C., washed four times, incubated with 2 μg/ml HRP conjugated anti-β2m for 1h at 37° C., washed again and detected with TMB solution that is stopped with […]. Absorption was measured at 450 nm. Candidate peptides that show a high exchange yield (preferably higher than 50%, most preferred higher than 75%) are generally preferred for a generation and production of antibodies or fragments thereof, and/or T cell receptors or fragments thereof, as they show sufficient avidity to the MHC molecules and prevent dissociation of the MHC complexes.

Peptide exchange (MHC class I binding score, peptide exchange yield)	Substance
“+++” (≥50 = +++)	67 (TLLAEALVTV; listed as Homo sapiens) [compound 67]
“++++” (≥75% = ++++)	68 (SLMELPRGLFL; listed as Homo sapiens) [compound 68]
“+++” (≥50 = +++)	69 (FQLDPSSGVLVTV; listed as Homo sapiens) [compound 69]
“+++” (≥50 = +++)	70 (GLLDYPVGV; listed as Homo sapiens) [compound 70]
“+++” (≥50 = +++)	71 (GILARIASV; listed as Homo sapiens) [compound 71]
“+++” (≥50 = +++)	72 (SLLELDGINL; listed as Homo sapiens) [compound 72]
“+++” (≥50 = +++)	73 (NIFDLQIYV; listed as Homo sapiens) [compound 73]
“+++” (≥50 = +++)	74 (ALLDPEVLSIFV; listed as Homo sapiens) [compound 74]
“+++” (≥50 = +++)	75 (GLLEVMVNL; listed as Homo sapiens) [compound 75]
“+++” (≥50 = +++)	76 (ILIDSIYKV; listed as Homo sapiens) [compound 76]
“++++” (≥75% = ++++)	77 (ILVEADGAWVV; listed as Homo sapiens) [compound 77]
“+++” (≥50 = +++)	78 (SLFSSLEPQIQPV; listed as Homo sapiens) [compound 78]
“+++” (≥50 = +++)	79 (SLFIGEKAVLL; listed as Homo sapiens) [compound 79]
“++” (≥20% = ++)	80 (FLYDNLVESL; listed as Homo sapiens) [compound 80]
“++” (≥20% = ++)	81 (FLFSQLQYL; listed as Homo sapiens) [compound 81]
“+++” (≥50 = +++)	82 (FLSSVTYNL; listed as Homo sapiens) [compound 82]
“+++” (≥50 = +++)	83 (ILAPTVMMI; listed as Homo sapiens) [compound 83]
“++” (≥20% = ++)	84 (VTFGEKLLGV; listed as Homo sapiens) [compound 84]
“+++” (≥50 = +++)	85 (KMSELRVTL; listed as Homo sapiens) [compound 85]
“+++” (≥50 = +++)	86 (NLIGKIENV; listed as Homo sapiens) [compound 86]
“++” (≥20% = ++)	87 (ALPEAPAPLLPHIT; listed as Homo sapiens) [compound 87]

Peptide exchange (MHC class I binding score, peptide exchange yield)	Substance
“+++” (≥50 = +++)	88 (FLLVGDLMAV; listed as Homo sapiens) [compound 88]
“++++” (≥75% = ++++)	89 (YILPTETIYV; listed as Homo sapiens) [compound 89]
“+++” (≥50 = +++)	90 (TLLQIIETV; listed as Homo sapiens) [compound 90]
“++++” (≥75% = ++++)	91 (IMQDFPAEIFL; listed as Homo sapiens) [compound 91]
“++” (≥20% = ++)	92 (YLIPFTGIVGL; listed as Homo sapiens) [compound 92]
“++” (≥20% = ++)	93 (LLQAIKLYL; listed as Homo sapiens) [compound 93]
“++” (≥20% = ++)	94 (YLIDIKTIAI; listed as Homo sapiens) [compound 94]
“+++” (≥50 = +++)	95 (SVIPQIQKV; listed as Homo sapiens) [compound 95]
“+++” (≥50 = +++)	96 (YIFTDNPAAV; listed as Homo sapiens) [compound 96]
“+++” (≥50 = +++)	97 (SLINGSFLV; listed as Homo sapiens) [compound 97]
“+++” (≥50 = +++)	98 (LIIDQADIYL; listed as Homo sapiens) [compound 98]
“++” (≥20% = ++)	99 (ALVSKGLATV; listed as Homo sapiens) [compound 99]
“++++” (≥75% = ++++)	100 (YLLSTNAQL; listed as Homo sapiens) [compound 100]
“+++” (≥50 = +++)	101 (ILVGGGALATV; listed as Homo sapiens) [compound 101]
“+++” (≥50 = +++)	102 (YLFESEGLVL; listed as Homo sapiens) [compound 102]
“+++” (≥50 = +++)	103 (TLAEEVVAL; listed as Homo sapiens) [compound 103]
“++++” (≥75% = ++++)	104 (STMEQNFLL; listed as Homo sapiens) [compound 104]
“+++” (≥50 = +++)	106 (LLYDAVHIVSV; listed as Homo sapiens) [compound 106]
“+++” (≥50 = +++)	107 (FLQPVDDTQHL; listed as Homo sapiens) [compound 107]
“++++” (≥75% = ++++)	108 (ALFPGVALLLA; listed as Homo sapiens) [compound 108]
“++++” (≥75% = ++++)	109 (IILSILEQA; listed as Homo sapiens) [compound 109]

Peptide exchange (MHC class I binding score, peptide exchange yield)	Substance
“+++” (≥50 = +++)	110 (FLSQVDFEL; listed as Homo sapiens) [compound 110]
“+++” (≥50 = +++)	111 (YVWGFYPAEV; listed as Homo sapiens) [compound 111]
“+++” (≥50 = +++)	113 (GLLPTPLFGV; listed as Homo sapiens) [compound 113]
“++” (≥20% = ++)	114 (SLVGEPILQNV; listed as Homo sapiens) [compound 114]
“++” (≥20% = ++)	115 (AIAGAGILYGV; listed as Homo sapiens) [compound 115]
“+” (≥10% = +)	116 (YHIDEEVGF; listed as Homo sapiens) [compound 116]
“+++” (≥50 = +++)	117 (ILPDGEDFLAV; listed as Homo sapiens) [compound 117]
“+++” (≥50 = +++)	118 (KLIDNNINV; listed as Homo sapiens) [compound 118]
“++++” (≥75% = ++++)	119 (FLYIGDIVSL; listed as Homo sapiens) [compound 119]
“+++” (≥50 = +++)	120 (ALLGIPLTLV; listed as Homo sapiens) [compound 120]
“++” (≥20% = ++)	121 (GVVDPRAISVL; listed as Homo sapiens) [compound 121]
“+++” (≥50 = +++)	122 (FLLAEDDIYL; listed as Homo sapiens) [compound 122]
“+++” (≥50 = +++)	123 (NLWDLTDASVV; listed as Homo sapiens) [compound 123]
“++” (≥20% = ++)	124 (ALYETELADA; listed as Homo sapiens) [compound 124]
“+++” (≥50 = +++)	125 (VQIHQVAQV; listed as Homo sapiens) [compound 125]
“++++” (≥75% = ++++)	126 (VLAYFLPEA; listed as Homo sapiens) [compound 126]
“++” (≥20% = ++)	127 (KIGDEPPKV; listed as Homo sapiens) [compound 127]
“++” (≥20% = ++)	128 (YLFDDPLSAV; listed as Homo sapiens) [compound 128]
“+++” (≥50 = +++)	129 (GLLDGGVDILL; listed as Homo sapiens) [compound 129]
“+++” (≥50 = +++)	130 (FLWNGEDSALL; listed as Homo sapiens) [compound 130]
